Experimental data as given in publication PMC10613257.

Legend:
[1] = target: insulin-like growth factor binding protein 5 (IGFBP5), full length, wild type (UniProt P24593); assay: FP; settings: enzyme
[2] = target: insulin-like growth factor binding protein 5 (IGFBP5), full length, wild type (UniProt P24593); assay: fluorescence polarisation; FAM-labelled FL IGFBP5 at 5 nM; enzyme serially diluted from 10 µM to 0.5 nM; 1X PBS; 384-well plates; catalytically inactive enzymes

Chain of insulin-like growth factor binding protein 5 (IGFBP5), full length, wild type (P24593 21-272): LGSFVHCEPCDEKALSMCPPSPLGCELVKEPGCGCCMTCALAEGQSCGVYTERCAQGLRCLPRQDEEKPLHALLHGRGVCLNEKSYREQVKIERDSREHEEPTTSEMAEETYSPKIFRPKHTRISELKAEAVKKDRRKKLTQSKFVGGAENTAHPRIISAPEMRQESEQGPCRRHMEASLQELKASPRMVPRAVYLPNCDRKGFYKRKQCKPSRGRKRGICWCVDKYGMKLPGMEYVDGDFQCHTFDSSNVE

Kd [1] [nM]	fold weaker binding than PAPP-A E483A [2] [fold]	Substance
2640	–	PAPP-A2 E500Q (catalytically inactive) (from UniProt Q9BXP8 235-1791)
–	11	PAPP-A2 E500Q (catalytically inactive) (from UniProt Q9BXP8 235-1791) (enzyme)
